In patent US20180092966A1 (CSL, published 2018):

Columns and labels:
[1] = biological target: VWF-FP (albumin-fused von Willebrand Factor) (human); assay: covalent-FVIII ELISA over FVIII activity assay
[2] = biological target: VWF-FP (albumin-fused von Willebrand Factor) (human); assay: covalent-FVIII ELISA over FVIII antigen ELISA
[3] = biological target: T1, VWF-FP H817C mutant (albumin-fused von Willebrand Factor) (human); assay: covalent-FVIII ELISA over FVIII activity assay
T1 construct: Stably expressed in CHO cells with furin co-transfected; also called VWF-FP mutant H817C; Cys residue at VWF aa position 817; not shown: linker between VWF and albumin, made in analogy to WO 2009/156137
T1 sequence (chain, as listed by the source H817C H817C): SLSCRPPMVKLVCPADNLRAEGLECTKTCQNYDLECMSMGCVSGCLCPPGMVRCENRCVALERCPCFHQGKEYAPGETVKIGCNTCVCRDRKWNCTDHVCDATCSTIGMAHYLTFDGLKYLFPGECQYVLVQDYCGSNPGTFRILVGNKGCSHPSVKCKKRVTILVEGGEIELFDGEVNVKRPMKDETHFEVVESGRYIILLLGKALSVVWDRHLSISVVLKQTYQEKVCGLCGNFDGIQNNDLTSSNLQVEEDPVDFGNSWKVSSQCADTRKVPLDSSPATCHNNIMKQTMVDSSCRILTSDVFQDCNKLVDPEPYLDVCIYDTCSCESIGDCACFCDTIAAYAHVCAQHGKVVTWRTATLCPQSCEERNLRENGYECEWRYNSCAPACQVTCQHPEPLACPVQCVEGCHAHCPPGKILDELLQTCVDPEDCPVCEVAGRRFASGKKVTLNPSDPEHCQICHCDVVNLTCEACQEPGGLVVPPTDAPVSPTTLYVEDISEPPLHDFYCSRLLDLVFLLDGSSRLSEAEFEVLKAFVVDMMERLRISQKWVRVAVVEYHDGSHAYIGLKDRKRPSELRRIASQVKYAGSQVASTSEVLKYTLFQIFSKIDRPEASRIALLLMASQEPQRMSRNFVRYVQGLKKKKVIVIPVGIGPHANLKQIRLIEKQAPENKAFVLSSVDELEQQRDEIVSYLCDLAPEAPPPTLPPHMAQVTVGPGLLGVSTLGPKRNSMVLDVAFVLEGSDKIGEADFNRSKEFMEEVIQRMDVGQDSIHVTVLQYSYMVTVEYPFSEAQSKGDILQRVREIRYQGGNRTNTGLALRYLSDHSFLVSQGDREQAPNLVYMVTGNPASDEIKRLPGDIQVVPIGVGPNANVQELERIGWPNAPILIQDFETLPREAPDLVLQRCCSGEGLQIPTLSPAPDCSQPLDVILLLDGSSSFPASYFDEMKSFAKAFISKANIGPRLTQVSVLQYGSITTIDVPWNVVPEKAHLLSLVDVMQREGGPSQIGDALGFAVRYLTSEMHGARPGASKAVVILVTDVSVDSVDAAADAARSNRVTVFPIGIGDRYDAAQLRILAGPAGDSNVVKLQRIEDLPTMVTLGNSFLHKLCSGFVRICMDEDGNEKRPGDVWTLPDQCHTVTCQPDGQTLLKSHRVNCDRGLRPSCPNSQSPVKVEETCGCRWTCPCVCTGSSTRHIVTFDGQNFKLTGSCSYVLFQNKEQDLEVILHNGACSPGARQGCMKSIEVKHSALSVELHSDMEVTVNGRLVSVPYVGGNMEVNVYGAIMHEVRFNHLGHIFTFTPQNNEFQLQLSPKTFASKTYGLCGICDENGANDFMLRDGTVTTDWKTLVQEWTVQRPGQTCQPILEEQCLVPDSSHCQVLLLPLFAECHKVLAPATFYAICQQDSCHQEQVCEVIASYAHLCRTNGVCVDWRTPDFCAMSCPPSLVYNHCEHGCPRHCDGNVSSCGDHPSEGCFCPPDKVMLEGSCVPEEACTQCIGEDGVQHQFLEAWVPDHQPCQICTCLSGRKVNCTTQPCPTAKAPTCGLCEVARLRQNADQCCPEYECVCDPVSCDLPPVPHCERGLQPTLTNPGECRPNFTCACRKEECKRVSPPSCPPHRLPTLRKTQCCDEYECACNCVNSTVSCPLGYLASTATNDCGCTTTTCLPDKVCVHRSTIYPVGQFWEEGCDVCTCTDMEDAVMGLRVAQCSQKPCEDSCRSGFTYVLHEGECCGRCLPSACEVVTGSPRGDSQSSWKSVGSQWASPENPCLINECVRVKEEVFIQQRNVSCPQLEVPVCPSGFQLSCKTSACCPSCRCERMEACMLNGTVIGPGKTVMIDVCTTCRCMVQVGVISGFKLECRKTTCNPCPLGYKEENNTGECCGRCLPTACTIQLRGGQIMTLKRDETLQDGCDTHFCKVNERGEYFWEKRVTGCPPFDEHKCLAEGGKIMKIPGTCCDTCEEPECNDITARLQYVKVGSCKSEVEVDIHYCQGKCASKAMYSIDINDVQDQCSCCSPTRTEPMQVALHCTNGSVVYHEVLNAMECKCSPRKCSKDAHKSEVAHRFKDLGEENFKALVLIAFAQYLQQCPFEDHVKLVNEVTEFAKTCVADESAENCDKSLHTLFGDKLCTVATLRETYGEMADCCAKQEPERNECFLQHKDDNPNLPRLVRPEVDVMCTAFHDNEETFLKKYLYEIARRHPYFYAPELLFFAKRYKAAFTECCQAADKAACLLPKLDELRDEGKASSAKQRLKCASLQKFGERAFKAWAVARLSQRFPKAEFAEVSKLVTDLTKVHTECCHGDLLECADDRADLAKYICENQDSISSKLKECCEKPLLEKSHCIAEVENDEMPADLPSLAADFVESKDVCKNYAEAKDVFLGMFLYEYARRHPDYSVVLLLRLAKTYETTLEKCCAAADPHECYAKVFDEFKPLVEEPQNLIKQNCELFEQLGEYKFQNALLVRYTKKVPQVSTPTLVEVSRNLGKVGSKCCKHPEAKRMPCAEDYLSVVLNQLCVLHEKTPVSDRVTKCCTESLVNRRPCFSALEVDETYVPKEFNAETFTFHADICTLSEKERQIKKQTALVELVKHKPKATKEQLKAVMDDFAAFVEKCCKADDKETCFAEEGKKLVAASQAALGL

[4] = biological target: T1, VWF-FP H817C mutant (albumin-fused von …); assay: covalent-FVIII ELISA over FVIII antigen ELISA
[5] = biological target: T1, VWF-FP H817C mutant (albumin-fused von …); assay: ELISA of co-expression supernatant: anti-VWF capture, 350 mM CaCl2 wash, anti-FVIII detection
Experimental: Cell culture supernatant samples (10 ml) from transient transfections were concentrated with Amicon Ultracell-30K (Millipore UFC903024; 3000 g centrifugation). FVIII covalently attached to VWF-FP in culture supernatant (concentrates) was determined by a standard ELISA. Briefly, microplates were incubated with 100 μL per well of the capture antibody (rabbit anti human VWF-IgG, Dako A0082 [Dako, Hamburg, Germany], diluted 1:2000 in buffer A [Sigma C3041, Sigma-Aldrich, Munich, Germany]) overnight at ambient temperature. After washing plates three times with buffer B (Sigma T9039), each well was incubated with 200 μL buffer C (Sigma T6789) for 1.5 hours at ambient temperature (blocking). After another three wash steps with buffer B, serial dilutions of the test sample in buffer B as well as serial dilutions of a control preparation of covalently linked FVIII-VWF-FP, (2.0-0.03 arbitrary U/ml in buffer B (we call these “arbitrary units” as they may not correspond to the standard FVIII units as determined using Standard Human Plasma); volumes per well: 100 μL) were incubated for 1.5 hours at ambient temperature. After three wash steps with buffer B, 200 μL of 350 mM CaCl₂ were added to each well and incubated for 1 hour at ambient temperature. CaCl₂ was removed (without washing) and additional 200 μl were added to each well and incubated further for 1 hour. After three wash steps with buffer B 100 μL of a 1:2 dilution in buffer B of the detection antibody (Detecting Antibody for FVIII:C, peroxidase labelled, Cedarlane CL20035K-D) were added to each well and incubated for 1 hour at ambient temperature. After three wash steps with buffer B, 100 μL of substrate solution (OUVF, Siemens Healthcare Diagnostics) were added per well and incubated for 15 minutes at ambient temperature in the dark. Addition of 100 μL undiluted stop dilution (OSFA, Siemens Healthcare Diagnostics) prepared the samples for reading in a suitable microplate reader at 450 nm wavelength. Concentrations of the test samples were then calculated using the standard curve with the control preparation.

Sequence of VWF-FP (albumin-fused von Willebrand Factor) (human) (chain, as listed by the source): as the sequence (chain, as listed by the source H817C H817C) above, with C54H counted along it

ratio of covalent FVIII to total FVIII activity [1] | ratio of covalent FVIII to total FVIII antigen [2] | ratio covalent FVIII/Total FVIII activity [3] | ratio covalent FVIII/Total FVIII antigen [4] | covalent FVIII [5] [amU/ml] | Molecule
5.78 | 7.47 | – | – | – | FVIII-SingleChain with VWF-derived C3-C4-C5-C6-CK sequence added to its C-terminus and a thrombin cleavage site between them
– | – | 1.02 | 0.33 | 292 | Factor VIII SingleChain N2129C mutant (other, Single-chain FVIII with partial B-domain deletion; also called FVIII-SC N2129C; Cys residue at FVIII aa position 2129) ATRRYYLGAVELSWDYMQSDLGELPVDARFPPRVPKSFPFNTSVVYKKTLFVEFTDHLFNIAKPRPPWMGLLGPTIQAEVYDTVVITLKNMASHPVSLHAVGVSYWKASEGAEYDDQTSQREKEDDKVFPGGSHTYVWQVLKENGPMASDPLCLTYSYLSHVDLVKDLNSGLIGALLVCREGSLAKEKTQTLHKFILLFAVFDEGKSWHSETKNSLMQDRDAASARAWPKMHTVNGYVNRSLPGLIGCHRKSVYWHVIGMGTTPEVHSIFLEGHTFLVRNHRQASLEISPITFLTAQTLLMDLGQFLLFCHISSHQHDGMEAYVKVDSCPEEPQLRMKNNEEAEDYDDDLTDSEMDVVRFDDDNSPSFIQIRSVAKKHPKTWVHYIAAEEEDWDYAPLVLAPDDRSYKSQYLNNGPQRIGRKYKKVRFMAYTDETFKTREAIQHESGILGPLLYGEVGDTLLIIFKNQASRPYNIYPHGITDVRPLYSRRLPKGVKHLKDFPILPGEIFKYKWTVTVEDGPTKSDPRCLTRYYSSFVNMERDLASGLIGPLLICYKESVDQRGNQIMSDKRNVILFSVFDENRSWYLTENIQRFLPNPAGVQLEDPEFQASNIMHSINGYVFDSLQLSVCLHEVAYWYILSIGAQTDFLSVFFSGYTFKHKMVYEDTLTLFPFSGETVFMSMENPGLWILGCHNSDFRNRGMTALLKVSSCDKNTGDYYEDSYEDISAYLLSKNNAIEPRSFSQNSRHRSTRQKQFNATTIPENTTLQSDQEEIDYDDTISVEMKKEDFDIYDEDENQSPRSFQKKTRHYFIAAVERLWDYGMSSSPHVLRNRAQSGSVPQFKKVVFQEFTDGSFTQPLYRGELNEHLGLLGPYIRAEVEDNIMVTFRNQASRPYSFYSSLISYEEDQRQGAEPRKNFVKPNETKTYFWKVQHHMAPTKDEFDCKAWAYFSDVDLEKDVHSGLIGPLLVCHTNTLNPAHGRQVTVQEFALFFTIFDETKSWYFTENMERNCRAPCNIQMEDPTFKENYRFHAINGYIMDTLPGLVMAQDQRIRWYLLSMGSNENIHSIHFSGHVFTVRKKEEYKMALYNLYPGVFETVEMLPSKAGIWRVECLIGEHLHAGMSTLFLVYSNKCQTPLGMASGHIRDFQITASGQYGQWAPKLARLHYSGSINAWSTKEPFSWIKVDLLAPMIIHGIKTQGARQKFSSLYISQFIIMYSLDGKKWQTYRGNSTGTLMVFFGCVDSSGIKHNIFNPPIIARYIRLHPTHYSIRSTLRMELMGCDLNSCSMPLGMESKAISDAQITASSYFTNMFATWSPSKARLHLQGRSNAWRPQVNNPKEWLQVDFQKTMKVTGVTTQGVKSLLTSMYVKEFLISSSQDGHQWTLFFQNGKVKVFQGNQDSFTPVVNSLDPPLLTRYLRIHPQSWVHQIALRMEVLGCEAQDLY
